{"source": "paper PMC12827578", "molecular_target": "CTLA4-FRB*-HA (UniProt P16410)", "data": [{"substance": "FLAG-FKBP-USP15 WT (from UniProt P62942 2-108) (enzyme)", "values": [{"measurement": "CTLA4-FH protein level by Western blot after Dox induction of FF-USP15 WT (18 h) and A/C 500 nM (24 h)", "result": "> 2", "unit": "fold"}]}]}
